Measurements: article PMC9298306, “Controlling Enzymatic Activity by Modulating the Oligomerization State via Chemical Rescue and Optical Control” (Chembiochem, 2021)
Blank lines part the entries; values can stand above or below the molecule they belong to.

Tests used:
[1] = test system: T1, RGGGPS (AncGGGPS2_N4_IF_n12); assay: coupled pyrophosphate/phosphate detection at […] nm (PPase, PNPase, xanthine oxidase), G1P-dependent; type: biochemical; details: 11 μM GGPP, 10 mM MgCl2, pH 8.0, 40 °C, 0.2 % Tween80
T1 construct: His-tagged, from E. coli; hexamer

mtGGGPS = biological target: T2, mtGGGPS (Methanothermobacter thermautotrophicus, UniProt O26652, K143C/C191A, form not given); assay: as above; type: biochemical; details: 11 μM GGPP, 10 mM MgCl2, pH 8.0, 40 °C, 0.2 % Tween80; without bromoethylamine (−Am), dimer
T2 construct: gene MTH_552; His-tagged, expressed in E. coli BL21-Gold(DE3); hexamer (trimer of dimers); C194A/K146C variant is a dimer unless rescued
T2 sequence (O26652 whole entry K143C/C191A, form open): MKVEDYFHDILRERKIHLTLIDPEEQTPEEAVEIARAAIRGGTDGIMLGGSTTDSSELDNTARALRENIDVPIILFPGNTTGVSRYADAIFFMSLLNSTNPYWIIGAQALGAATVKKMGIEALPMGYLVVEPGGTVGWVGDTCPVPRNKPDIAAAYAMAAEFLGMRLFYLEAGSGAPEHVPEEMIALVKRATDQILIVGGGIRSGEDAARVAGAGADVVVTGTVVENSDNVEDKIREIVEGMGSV

[2] = biological target: mtGGGPS_(C194A)_K146C^+Am (Methanothermobacter thermautotrophicus) (UniProt O26652)
[3] = biological target: mtGGGPS_(C194A)_K146C^+Am (Methanothermobacter thermautotrophicus) (UniProt O26652); assay: SEC-MALS; analytical SEC (Superdex 200 Increase 10/300 GL) in combination with static light scattering (right-angle light scattering and refractive index detectors); 40 μM subunit concentration; 50 mM potassium phosphate, pH 7.5, 300 mM KCl; room temperature (approx. 23 °C)
[4] = biological target: mtGGGPS_(C194A) (Methanothermobacter thermautotrophicus) (UniProt O26652); assay: as above
[5] = biological target: geranylgeranylglyceryl phosphate synthase from Methanothermobacter thermautotrophicus, wild type (Methanothermobacter thermautotrophicus) (UniProt O26652); assay: as above
purified protein = substrate: O=P(O)(O)OC[C@@H](O)CO; assay: purified protein; type: biochemical, Methanothermobacter thermautotrophicus; details: 11 μM GGPP, 10 mM MgCl2, pH 8.0, 40 °C, 0.2 % Tween80

Molecule: O=P(O)(O)OC[C@@H](O)CO [G1P, glycerol 1‐phosphate]
Km [1]: 14.2 ± 2.2 µM
Km (mtGGGPS): 63.4 ± 5.8 µM

B1: mtGGGPS (Methanothermobacter thermautotrophicus str. Delta H) (protein)
chain: MKVEDYFHDILRERKIHLTLIDPEEQTPEEAVEIARAAIRGGTDGIMLGGSTTDSSELDNTARALRENIDVPIILFPGNTTGVSRYADAIFFMSLLNSTNPYWIIGAQALGAATVKKMGIEALPMGYLVVEPGGTVGWVGDTKPVPRNKPDIAAAYAMAAEFLGMRLFYLEAGSGAPEHVPEEMIALVKRCTDQILIVGGGIRSGEDAARVAGAGADVVVTGTVVENSDNVEDKIREIVEGMGSV
notes: His-tagged, expressed in E. coli BL21-Gold(DE3); hexamer (trimer of dimers); C194A/K146C variant is a dimer unless rescued
Km (purified protein): 2.0 ± 0.3 µM
kcat (purified protein): 0.23 ± 0.005 s⁻¹
kcat/Km (purified protein): 115000 ± 17000 M⁻¹ s⁻¹

B2: mtGGGPS (Methanothermobacter thermautotrophicus str. Delta H; C191A) (protein)
chain: MKVEDYFHDILRERKIHLTLIDPEEQTPEEAVEIARAAIRGGTDGIMLGGSTTDSSELDNTARALRENIDVPIILFPGNTTGVSRYADAIFFMSLLNSTNPYWIIGAQALGAATVKKMGIEALPMGYLVVEPGGTVGWVGDTKPVPRNKPDIAAAYAMAAEFLGMRLFYLEAGSGAPEHVPEEMIALVKRATDQILIVGGGIRSGEDAARVAGAGADVVVTGTVVENSDNVEDKIREIVEGMGSV
notes: as for B1
Km (purified protein): 3.3 ± 0.6 µM
kcat (purified protein): 0.29 ± 0.01 s⁻¹
kcat/Km (purified protein): 88000 ± 18000 M⁻¹ s⁻¹

More lines, now with the values ahead:

kcat/KM, photometric assay of the GGGPS reaction at 40 °C [2]: 550 M⁻¹ s⁻¹
stoichiometry N [3]: 2
Molecule: mtGGGPS_(C194A)_K146C^−Am (from UniProt O26652 1-245) (enzyme)

stoichiometry N [4]: 6
Molecule: mtGGGPS_(C194A) (from UniProt O26652 1-245) (enzyme)

stoichiometry N [5]: 6
Molecule: geranylgeranylglyceryl phosphate synthase from Methanothermobacter thermautotrophicus, wild type (from UniProt O26652 1-245) (enzyme)

kcat/KM, photometric assay of the GGGPS reaction at 40 °C [2]: 192000 M⁻¹ s⁻¹
percent in the hexameric state [3]: 100%
stoichiometry N [3]: 6
Molecule: mtGGGPS_(C194A)_K146C^+Am (from UniProt O26652 1-245) (enzyme)
